Laboratory results: patent publication US20220041724A1 (GRAND DECADE DEVELOPMENTS, published 2022)

Key:
[1] = target: T1, Recombinant mouse CTLA-4/human IgG1 chimera (R&D Systems) (mouse; human, UniProt P09793 36-162, limits assumed); assay: ELISA: mouse CTLA-4/human IgG1 chimera coated at 1 or 5 µg/mL; HEK293 conditioned medium with 9H10-scFv at 168 ng/mL; anti-mouse IgG-HRP, OD 450 nm
T1 construct: Bought reagent; also called recombinant mCTLA-4/Fc; recombinant CTLA4 protein; not shown: human IgG1 portion (Fc) of the bought chimera
Procedure: (§1) Plasmid encoded anti-CTLA4 scFv bound to recombinant CTLA4 protein. Transfection-derived secreted anti-CTLA4 (scFv) were evaluated for their binding capacity to CTLA-4. Recombinant mouse CTLA-4/human IgG1 chimera (R&D Systems) were immobilized in 96-well plates (1 or 5 μg/mL, or […]) for 18 hr at room temperature. Wells were washed three times with 0.1% Tween in PBS and blocked with 1% BSA in PBS. Conditioned medium from HEK293 cells transfected with 9H10-scFv (168 ng/mL) or 9D9-scFv (130 ng/mL) was added to the wells, and incubated for 2 h at room temperature. Wells were washed three times, and anti-mouse IgG-horseradish peroxidase (Jackson ImmunoResearch, 0.2 μg/mL) were added and incubated for 1.5 hours at room temperature. Wells were again washed three times, developed with HRP Substrate Reagent (R&D Systems) and stopped with Stop Solution, 2N sulfuric acid (R&D Systems). Optical density of each well was measured at 450 nm.

[2] = target: T1, Recombinant mouse CTLA-4/human IgG1 …; assay: ELISA: mouse CTLA-4/human IgG1 chimera coated at 1 or 5 µg/mL; HEK293 conditioned medium with 9D9-scFv at 130 ng/mL; anti-mouse IgG-HRP, OD 450 nm
Procedure: as §1

binding result [1] | binding result [2] | Binder
binds | – | 9H10-scFv (Igκ-HA-9H10 VLC-Linker-9H10 VHC-Linker-mIgG1 Fc domain, anti-CTLA-4 scFv) (scFv, scFv (VL-linker-VH) with an N-terminal HA tag, fused to a mouse IgG1 Fc domain; It was secreted into conditioned medium of transfected HEK293 cells; also called plasmid encoded anti-CTLA4 scFv) scFv: YPYDVPDYAGAQPARSDIVMTQSPSSLAVSVGEKVTISCKSSQSLLYGSSHYLAWYQQKVGQSPKLLIYWASTRHTGIPDRFIGSGSGTDFTLSLSSVQAEDMADYFCQQYFSTPWTFGAGTRVEIKSGSGGGSGGGSGGGSQVQLLQSESELVKPGASVKLSCKTSGYTFTDYYIHWVKQKPGQGLEWIGLINPNNDGTNYNQKFQGKATLTADKSSSTAYMELNSLTFDDSVIYFCARASSRLRMARTTSDYYAMDYWGQGIQVTVSSVDSSGSGGCKPCICTVPEVSSVFIFPPKPKDVLTITLTPKVTCVVVDISKDDPEVQFSWFVDDVEVHTAQTQPREEQFNSTFRSVSELPIMHQDWLNGKEFKCRVNSAAFPAPIEKTISKTKGRPKAPQVYTIPPPKEQMAKDKVSLTCMITDFFPEDITVEWQWNGQPAENYKNTQPIMDTDGSYFVYSKLNVQKSNWEAGNTFTCSVLHEGLHNHHTEKSLSHSPGK
– | binds | 9D9-scFv (Igκ-HA-9D9 VLC-Linker-9D9 VHC-Linker-mIgG1 Fc domain, anti-CTLA-4 scFv) (scFv, scFv (VL-linker-VH) with an N-terminal HA tag, fused to a mouse IgG1 Fc domain; It was secreted into conditioned medium of transfected HEK293 cells; also called plasmid encoded anti-CTLA4 scFv) scFv: YPYDVPDYAGAQPARSDIVMTQTTLSLPVSLGDQASISCRSSQSIVHSNGNTYLEWYLQKPGQSPKLLIYKVSNRFSGVPDRFSGSGSGTDFTLKISRVEAEDLGVYYCFQGSHVPYTFGGGTKLEIKRADAAPTVSGSGGGSGGGSGGGSEAKLQESGPVLVKPGASVKMSCKASGYTFTDYYMNWVKQSHGKSLEWIGVINPYNGDTSYNQKFKGKATLTVDKSSSTAYMELNSLTSEDSAVYYCARYYGSWFAYWGQGTLITVSTAKTTPPSVYPLAPVDSSGSGGCKPCICTVPEVSSVFIFPPKPKDVLTITLTPKVTCVVVDISKDDPEVQFSWFVDDVEVHTAQTQPREEQFNSTFRSVSELPIMHQDWLNGKEFKCRVNSAAFPAPIEKTISKTKGRPKAPQVYTIPPPKEQMAKDKVSLTCMITDFFPEDITVEWQWNGQPAENYKNTQPIMDTDGSYFVYSKLNVQKSNWEAGNTFTCSVLHEGLHNHHTEKSLSHSPGK
